Data on one molecule can be found in patent publication US20250313625A1 (ELPISCIENCE SUZHOU BIOPHARMA, published 2025).

Like-named read-outs stand apart in the source and are kept apart here.

One may read the Kd as the free concentration of one partner at which half of the binding sites on the other are occupied at equilibrium, for simple one-to-one binding. A lower Kd goes with tighter binding. As usually defined, the koff is the rate constant with which the complex falls apart. One may read the kon as a measure of how fast the partners come together. A low value points to slower complex formation. Usually EC50 stands for the concentration giving half of the maximal effect. What is called IC50 is the concentration that inhibits the measured activity by half.

Assay [1] concerns the target T1, human LAG3 (form used in Octet, Biacore and HDX-MS not given) (human, UniProt P18627 23-450, limits assumed).
T1 sequence (looked up): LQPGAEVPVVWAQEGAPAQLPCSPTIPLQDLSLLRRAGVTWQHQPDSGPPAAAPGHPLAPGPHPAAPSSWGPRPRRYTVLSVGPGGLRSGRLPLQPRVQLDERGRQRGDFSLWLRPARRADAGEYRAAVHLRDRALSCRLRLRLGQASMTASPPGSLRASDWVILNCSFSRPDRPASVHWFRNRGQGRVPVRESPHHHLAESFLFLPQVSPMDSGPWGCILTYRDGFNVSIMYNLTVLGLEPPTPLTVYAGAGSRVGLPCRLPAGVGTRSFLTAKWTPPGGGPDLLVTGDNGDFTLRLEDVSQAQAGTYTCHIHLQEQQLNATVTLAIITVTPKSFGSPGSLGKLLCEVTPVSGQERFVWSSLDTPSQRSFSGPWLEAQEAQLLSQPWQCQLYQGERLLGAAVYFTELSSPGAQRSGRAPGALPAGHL
Kind of assay: SPR (Biacore), 1:1 fit. Here is the method:
The association and dissociation curves were fit with 1:1 binding model, and the Ka/Kd/KD values for each antibody were calculated.
In general terms: Surface plasmon resonance follows binding to a sensor surface in real time, without labels.

Assay [2] concerns the target T2, human LAG3, full length, stably expressed on cells (human, UniProt P18627 23-525).
T2 construct: whole, on cells; also called CHOK1-human LAG3
T2 sequence (looked up): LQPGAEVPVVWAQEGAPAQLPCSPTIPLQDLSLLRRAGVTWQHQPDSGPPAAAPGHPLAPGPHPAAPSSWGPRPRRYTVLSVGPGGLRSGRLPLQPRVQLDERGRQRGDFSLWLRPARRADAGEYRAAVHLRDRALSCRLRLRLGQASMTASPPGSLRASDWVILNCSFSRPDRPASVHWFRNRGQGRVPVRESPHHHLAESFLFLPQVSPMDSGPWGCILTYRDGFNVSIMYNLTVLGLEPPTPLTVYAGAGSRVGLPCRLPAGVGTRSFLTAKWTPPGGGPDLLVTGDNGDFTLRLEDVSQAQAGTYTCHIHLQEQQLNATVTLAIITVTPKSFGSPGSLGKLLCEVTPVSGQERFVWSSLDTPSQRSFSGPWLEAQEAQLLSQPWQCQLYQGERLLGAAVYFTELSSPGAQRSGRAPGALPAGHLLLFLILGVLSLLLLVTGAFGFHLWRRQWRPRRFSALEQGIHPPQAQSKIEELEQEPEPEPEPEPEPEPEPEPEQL
Description: FACS on 293F cells stably expressing human LAG3. The procedure: Briefly the antibodies were incubated with 2×10⁵ target cells at 4° C. for 1 hour. After washing, fluorescence labeled anti-mouse IgG 2nd antibody (Life Technologies) was added and incubated at 4° C. for 1 hour. Geometric median fluorescence intensity (MFI) was detected and EC₅₀ was calculated using GraphPad Prism9.0.
MFI was detected and EC₅₀ was calculated using GraphPad Prism9.0.

The target in assay [3] is T3, human LAG3 ECD recombinant protein (plate coated, tag not stated) (human, UniProt P18627 23-450).
T3 construct: extracellular domain
T3 sequence (looked up): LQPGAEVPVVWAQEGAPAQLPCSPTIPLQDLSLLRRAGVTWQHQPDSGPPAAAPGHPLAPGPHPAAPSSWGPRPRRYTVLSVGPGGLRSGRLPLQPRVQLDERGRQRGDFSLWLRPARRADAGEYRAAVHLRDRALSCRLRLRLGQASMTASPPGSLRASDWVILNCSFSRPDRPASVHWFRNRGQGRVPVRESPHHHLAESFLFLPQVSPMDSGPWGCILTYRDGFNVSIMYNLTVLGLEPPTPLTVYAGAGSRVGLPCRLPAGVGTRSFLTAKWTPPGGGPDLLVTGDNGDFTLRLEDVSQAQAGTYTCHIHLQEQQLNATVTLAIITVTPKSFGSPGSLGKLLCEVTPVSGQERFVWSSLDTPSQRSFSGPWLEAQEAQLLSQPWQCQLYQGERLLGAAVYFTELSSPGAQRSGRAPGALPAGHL
Description: competitive ELISA format I: His-FGL1 binding to coated LAG3 ECD. Background: ELISA stands for enzyme-linked immunosorbent assay.

In assay [4] the target is T4, LAG3 D1 domain extra loop peptide (biotin labelled (site not stated)).
T4 peptide: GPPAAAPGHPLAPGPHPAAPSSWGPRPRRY
Description: ELISA format I: biotin labelled LAG3 D1 domain extra loop peptide on plate coated antibody; axis printed as Ab Conc. (nM). Here is the method: In ELISA binding assay of format I (FIG. 9A), biotin labelled LAG3 D1 domain extra loop peptide was incubated with ELISA microplate coated anti-LAG3 antibodies. After washing, HRP labeled anti-SA 2nd antibody (Sigma) was added and incubated at 37° C. for 1 hour. Then, 100 μl/well of TMB solution (Biotechnology) was added. After incubation for 15 minutes at room temperature, the reaction was stopped by the addition of 50 μl of 1N HCl. OD 450 nm was read. In ELISA binding assay of format II (FIG. 9B), biotin labelled LAG3 D1 domain extra loop peptide and anti-LAG3 antibodies were co-incubated in ELISA microplate coated with SA. After washing, HRP labeled anti-human Fc 2nd antibody (Sigma) was added and incubated at 37° C. for 1 hour. Then, 100 μl/well of TMB solution (Biotechnology) was added. After incubation for 15 minutes at room temperature, the reaction was stopped by the addition of 50 μl of 1N HCl. OD 450 nm was read.

The target of assay [5] is T5, mFc tagged human LAG3 ECD recombinant protein (human, UniProt P18627 23-450).
T5 construct: extracellular domain; purchased from Biointron; not shown: mouse IgG Fc (mFc) tag
T5 sequence (looked up): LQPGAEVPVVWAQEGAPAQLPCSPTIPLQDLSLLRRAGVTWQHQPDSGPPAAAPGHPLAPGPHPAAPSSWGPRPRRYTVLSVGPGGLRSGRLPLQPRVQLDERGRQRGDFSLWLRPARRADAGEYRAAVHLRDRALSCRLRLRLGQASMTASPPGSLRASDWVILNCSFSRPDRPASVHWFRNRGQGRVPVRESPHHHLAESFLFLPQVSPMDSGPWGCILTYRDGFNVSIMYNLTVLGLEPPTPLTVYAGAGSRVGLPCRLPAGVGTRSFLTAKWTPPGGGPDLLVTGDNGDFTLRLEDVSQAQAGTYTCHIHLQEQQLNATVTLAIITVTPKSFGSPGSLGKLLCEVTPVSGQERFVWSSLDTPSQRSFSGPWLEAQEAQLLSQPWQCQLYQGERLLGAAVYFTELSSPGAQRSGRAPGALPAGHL
Description: competitive FACS: mFc-LAG3 ECD binding to Raji cells (MHC II). The procedure:
(§1) Activity of the purified chimeric antibodies to block LAG3 and MHC II interaction was determined by competitive FACS assay. […] After washing, dye labeled anti-mouse Fc 2nd antibody (Sigma) was added and incubated at 37° C. for 1 hour. Fluorescence intensity was detected.

The target in assay [6] is T6, hFc tagged human LAG3 ECD recombinant protein (human, UniProt P18627 23-450).
T6 construct: range 23-450; also called biotin labelled hFc tagged human LAG3 ECD; not shown: human IgG Fc tag
T6 sequence (looked up): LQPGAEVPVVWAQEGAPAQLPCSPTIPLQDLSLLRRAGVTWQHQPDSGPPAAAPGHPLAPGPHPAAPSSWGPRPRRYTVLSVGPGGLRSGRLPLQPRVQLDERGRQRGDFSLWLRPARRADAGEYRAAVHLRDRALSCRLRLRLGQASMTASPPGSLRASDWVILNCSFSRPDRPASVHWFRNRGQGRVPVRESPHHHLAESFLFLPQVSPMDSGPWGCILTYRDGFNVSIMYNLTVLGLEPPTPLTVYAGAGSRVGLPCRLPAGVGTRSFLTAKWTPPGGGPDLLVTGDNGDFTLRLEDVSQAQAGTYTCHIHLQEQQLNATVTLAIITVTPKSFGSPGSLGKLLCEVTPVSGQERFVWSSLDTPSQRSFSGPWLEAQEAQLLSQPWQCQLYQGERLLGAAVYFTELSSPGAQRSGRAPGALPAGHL
Kind of assay: competitive ELISA format II: biotin hFc-LAG3 ECD binding to coated His-FGL1. Here is the method: After washing, HRP labeled anti-His 2nd antibody (Sigma) was added and incubated at 37° C. for 1 hour. Then, 100 μl/well of TMB solution (Biotechnology) was added. After incubation for 15 minutes at room temperature, the reaction was stopped by the addition of 50 μl of 1N HCl. OD 450 nm was read. […] After washing, HRP labeled anti-SA 2nd antibody (Sigma) was added and incubated at 37° C. for 1 hour. Then, 100 μl/well of TMB solution (Biotechnology) was added. After incubation for 15 minutes at room temperature, the reaction was stopped by the addition of 50 μl of 1N HCl. OD 450 nm was read. […] The competition assay of format III is a competitive FACS assay. […] After washing, dye labeled anti-His 2nd antibody (Sigma) was added and incubated at 37° C. for 1 hour. Fluorescence intensity was detected.

The target in assay [7] is T1, human LAG3 (form used in Octet, Biacore …). Kind of assay: BLI (Octet). On the technique in general: In BLI a coated tip is dipped into the sample, and binding shifts an interference pattern.
For assay [8], the target named is T5, mFc tagged human LAG3 ECD recombinant …. Kind of assay: competitive FACS: mFc-LAG3 ECD binding to Raji cells (MHC II). The procedure: as §1
The source holds these as a separate data set.

B1: 023c (antibody, human IgG4, V domains shown)
VH: QIQLVQSGPVLKKPGETVKISCKASGYTFTESPMNWVKQAPGRGFKWMGMIYTDTGEPTYAEEFKGRFAFSLETSASTAYLQINNLKSEDTATYFCVSDYGSILYWYFDVWGTGTTVTVSS
VL: DIVMTQSHKFMSTSVGDRVSITCKASQDVSTAVAWYQQTPGQSPKLLIYSASYRYTGVPDRFTGSGSGTDFTFTISSVQAEDLAVYYCQQHYNSPPTFGAGTKLELK
notes: human IgG4 S228P / kappa chimeric antibody; also called chimeric antibody 023; ES005-023c; not shown: human kappa light chain constant region (pcDNA3.4-hIgGk vector)
In assay [1], B1 registered a Kd of 0.0775 nM, a koff of 0.000441 s⁻¹ and a kon of 5.68e+06 M⁻¹ s⁻¹. In assay [2], the EC50 was 1.3 nM and the “TOP MFI” value came out at 387. Also, in assay [3], the “Blocking ratio at 66.7 nM (%)” value turned out to be 52.9%. For the same molecule, in assay [4], the binding result is listed as “no binding (tested: about 300 nM)”. Besides, in assay [5], the IC50 was 6.2 nM and the “TOP blocking (%)” value was 99.2%. In assay [6], the concentration for half-maximal inhibition (IC50) amounted to 1.47 nM and the “TOP blocking (%)” value was 86.8%. Besides, in assay [7], the Kd turned out to be 0.456 nM, the koff was determined as 0.000161 s⁻¹ and the on-rate constant (kon) came out at 352000 M⁻¹ s⁻¹. Also, in assay [8], the IC50 was found to be 3.7 nM and the “TOP blocking (%)” value was determined as 94.6%.
